Results: patent publication US6569458B1, “Process for producing small particles of biologically active molecules” (Alkermes Controlled Therapeutics, Inc., priority 1989, dated 2003)

Assays:
[1] = SOD enzyme activity, inhibition of the reduction of nitro-blue tetrazolium by the superoxide anion; assay type: biochemical
Method: The activity of the SOD was determined after the lyophilization step and after the ultrasonication step. The method used to determine the enzyme activity is based upon the ability of SOD to inhibit the reduction of nitro-blue tetrazolium by the superoxide anion. This assay is described in detail by Winterbourne, et al., in “The Estimation of Red Cell Superoxide Dismutase Activity,” J. Lab. Clin. Med., 85, 337 (1975). After the lyophilization step, the SOD had 94% of its original activity. After the ultrasonication step, the SOD has 91% of its original activity.

[2] = Particle size analysis of fragmented particles (Microtrac small particle analyzer); assay type: physicochemical; conditions: for mean particle diameter after five minutes sonication: atomized into liquid nitrogen, lyophilized, sonicated in ethanol 5 min; for mean particle diameter / size distribution for the effective diameters: ammonium bicarbonate buffer, ethyl acetate, ultrasonic irradiation; for Particle Size: sonicated 5 min
Method: A 50 mg sample of the lyophilized microspheres was suspended in 5 ml of 100 percent ethanol solution and cooled in an ice water bath to 0° C. With continuous cooling, the HRP porous particles were then exposed to an ultrasonic probe (Virtis Company Inc., Virsonic 300) for different times. Samples were analyzed for particle size diameter on a Microtrac Model 7995 Small Particle Analyzer (Leeds and Northrup).
The hemoglobin particles were suspended in ethyl acetate and fragmented by subjecting them to ultrasonic irradiation with cooling by an ice bath.

[3] = Diameter of particles by light microscopy; assay type: physicochemical
Method: A 250 mg sample of the enzyme horse radish peroxidase (HRP) (Sigma Chemical Co, St. Louis, Mo.) was dissolved in 10 ml of a 0.05 M phosphate buffer solution having a pH of 7.2. The solution was atomized through an ultrasonic nozzle (SonoTek Corp., Model 8700-60MS) into a stirred container of liquid nitrogen. The liquid nitrogen containing the frozen atomized spheres was next placed in a −80° C. freezer until the liquid nitrogen evaporated, about one to two hours. The frozen protein spheres were then placed in a lyophilizer (Virtis Company Inc., Model 10-MR-TR) for at least 12 hours to produce porous particles.
The sample prepared from 100 mg ammonium bicarbonate/ml was suspended in ethyl acetate and fragmented by ultrasonic irradiation.
This was ultrasonicated to form frozen particles which were lyophilized according to the procedure of Example 1.

[4] = HRP enzyme activity, rate of oxidation of p-anisidine; assay type: biochemical
Method: The activity of the HRP was determined after the lyophilization step and after the ultrasonication step. The method used to determine the enzyme activity is based upon the rate of oxidation of p-anisidine and is described in detail in The Worthington Enzyme Manual, Worthington, D. D., (ed.), Worthington Biochemical Corp., Freehold, N.J., p. 254 (1988).

[5] = Particle size analysis of fragmented particles (Microtrac small particle analyzer); assay type: physicochemical; conditions: ethyl acetate
[6] = Heme absorption, second derivative spectra of processed hemoglobin; assay type: physicochemical, bovine; conditions: homogenized particles stored in ethyl acetate for seven days, dissolved in 0.2 M sodium phosphate pH 7.7
Method: The homogenized hemoglobin particles were stored in ethyl acetate for seven days, after which the solvent was decanted and the hemoglobin dried under vacuum at room temperature. The resulting solid was dissolved in 0.2 M sodium phosphate pH 7.7, and its heme absorption compared with that of freshly dissolved bovine hemoglobin, as well as with hemoglobin denatured in 6 M guanidinium chloride, using a Hewlett Packard diode array spectrophotometer. In order to accentuate spectral features, the second derivative of absorption with respect to wavelength was obtained for each sample.

[7] = Scanning electron micrographs (SEM) of particles; assay type: physicochemical
Method: 125 mg bovine hemoglobin dissolved in 5 ml 0.05 M ammonium bicarbonate was formed into particles by spraying and lyophilization, according to the procedure of Example 1. […] A control solution containing only ammonium bicarbonate was also sprayed and lyophilized as described in Example 1.
The hemoglobin particles were suspended in ethyl acetate and fragmented by subjecting them to ultrasonic irradiation with cooling by an ice bath. When the resulting particles were subjected to particle size analysis using a Leeds & Northrup Microtrac small particle analyzer, the mean particle diameter was 3.7±2.8 micrometers.

For superoxide dismutase [SOD], the “original activity after the lyophilization step” value ([1]; after lyophilization) was 94%, the “original activity after the ultrasonication step” value ([1]; after ultrasonication) was 91% and the “mean particle diameter after five minutes sonication” value [2] was 2.7±2.1 micrometers.

For `NCC(=O)O` [Glycine], the “mean diameter of porous particles” value ([3]; light microscopy, after lyophilization, before ultrasonication) was 24.4±14.6 micrometers and the “mean diameter after ultrasonication” value ([2]; […] solution in deionized water, ultrasonication for 4 min) was 3.2±1.9 micrometers.

In the case of catalase, the “mean particle diameter after five minutes sonication” value [2] is reported as 4.5±3.3 micrometers.

With heparin [reference compound] the “mean particle diameter after five minutes sonication” value [2] was 6.9±4.0 micrometers.

With horse radish peroxidase [HRP] the “original activity retained after each step of the particle size reduction process” value ([4]; after the lyophilization step and after the ultrasonication step, phosphate buffer pH 7.2, ethanol) was no less than 90%, the “activity retained during the process” value ([4]; ammonium bicarbonate buffer, ethyl acetate, ultrasonic fragmentation (Example 13)) was 90% and the “diameter of the porous spheres after lyophilization” value ([3]; before sonication, range) was 25-35 micrometers. For the same compound, the “mean particle size as a function of time of ultrasonication” value ([2]; after 100 seconds ultrasonication) was “under five”, the “mean particle diameter / size distribution for the effective diameters” value [2] was 2.8±2.2 micrometers and the Particle Size ([2]; citrate/phosphate buffer pH 5.2) was 2.9 ± 2.1 µm. For the same compound, the Particle Size ([2]; phosphate buffer pH 7.2) was 3.5 ± 2.8 µm and the Particle Size ([2]; tris buffer pH 9.1) was 6.2 ± 3.7 µm.

With bovine hemoglobin the “size distribution for the effective diameters” value ([5]; after 80 sec of homogenization) was 7.2±3.7 micrometers, the “particle diameter size distribution” value ([5]; after 300 sec of homogenization) was 6.6±3.7 micrometers and the “mean particle diameter / size distribution for the effective diameters” value [2] was 3.7±2.8 micrometers. For the same compound, the “mean particle diameter after five minutes sonication” value [2] was 1.8±1.3 micrometers, the “mean particle diameter after 5 minutes sonication” value ([2]; sprayed into liquid argon before lyophilization) was 3.6±2.8 micrometers and the “second derivative heme absorption spectrum compared with fresh hemoglobin” value [6] was “identical”. The “length of flat irregular plates (SEM of sonicated particles)” value [7] was roughly 1.0 micrometer and the “thickness of flat irregular plates (SEM of sonicated particles)” value [7] was 0.1 micrometer.

In the case of `C[C@]12CC[C@H]3[C@@H](CCC4=CC(=O)CC[C@@]43C)[C@@H]1CC[C@@H]2O` [testosterone, reference compound], the “mean diameter of resulting particles” value ([2]; […] solution in 1,4 dioxane) is reported as 5.4±2.9 micrometers.

With dextran the “mean particle size as a function of solution concentration” value ([2]; 20, 10, 5, 1, 2.5 and 0.5 percent solutions, ethanol, ultrasonicated five minutes) was “smallest particles are produced using 0.5 to 5% dextran solutions”.
